Assay: soluble on expression in E. coli; label from the status in PepcDB or PDB records

Question: Which “soluble on expression in E. coli” value does the source give for “KNSINTIKLIDDIIALHNDPKGNKLLWNDNWQDKIINRDLANIFEKIDESVSELGGLEMYQEMVGVNPYDPTEPVCGLSAQNIFKLMTEGEHAVDPVEMAQTGKIDGNEFAESVDQLSSAKNYVALVNDRRLGHMFLIDIPSNDQETVGYIYQSDLGQGALPPLKIADWLNSRGKDAVSLNKLKKLLSREFNLLSDDEKRALISETLDIHKDVSNVELDRIKRDRGVDIYLTEYDVNNFYENIETLKSKLSNYDKKLSKPK” here?
Answer: soluble

Question: With “KPKSAVAPPGAPKKEHVNVVFIGHVDAGKSTIGGQIMYLTGMVDERTLEKYEREAKEKNRETWYLSWALDTNQEERDKGKTVEVGRAYFETEKKHFTILDAPGHKSFVPNMIGGASQADLAVLVISARKGEFETGFEKGGQTREHAMLAKTAGVKHLIVLINKMDDPTVNWSNERYEECKEKLVPFLKKVGFNPKKDIHFMPCSGLTGANLKEQSDFCPWYIGLPFIPYLDNLPNFNRSVDGPIRLPIVDKYKDMGTVVLGKLESGSICKGQQLVMMPNKHNVEVLGILSDDVETDSVAPGENLKIRLKGIEEEEILPGFILCDLNNLCHSGRTFDAQIVIIEHKSIICPGYNAVLHIHTCIEEVEITALICLVDKKSGEKSKTRPRFVKQDQVCIARLRTAGTICLETFKDFPQMGRFTLRDEGKTIAIGKVLKLVPEKD” as the sequence, how does the “soluble on expression in E. coli” value read?
Answer: soluble

Question: Which “soluble on expression in E. coli” value does the source give for “KPYQVVGEKQEILNLIDNTTLDVSFTLPVSYAESVSLSALKNAEMWVTMDSEPSKRIPGKFKEISTQPNIDTNSYEAIVTITRPTDRNLLTGMTGQVHIAKQNKSNAMTLPTSAWVNKQEKQGEVWVMDSSTQQVSKVTLSLNESGAIESGLDNNDYVVIAGVERLVEGQVVKAWIREEGI” here?
Answer: not soluble

Question: With “KPYVSEDSRVYSPQEPTLVVKSVDNSVSIDVTSKYNVNLYRNGELIQKNVIAQSYSDTPTGFACYLAESINDKGFRSNPSQPVCVGEEIRIKLDGEYQPLKDNVSVVTVSKDSGIVKGAESFTAPVTGTYQFDAWYNNNLGQLNTGITNTVKLLEVLDDAGKVVGQGYLQMGHIGENQGMRYSTPIEVALEQGKTYQFALKDHFNMSYLTSNETYIYAGGIEGEKNEAQIADIRITPLM” as the sequence, how does the “soluble on expression in E. coli” value read?
Answer: not soluble

Question: For “KRFEFVGWGSRQLIEFLHSLGKDTSEMISRYDVSDTIAKYISKEGLLDPSNKKKVVCDKRLVLLFGTRTIFRMKVYDLLEKHYKENQD”, which “soluble on expression in E. coli” value is on record?
Answer: soluble

Question: For “KRKDITLLNPIVRKFQYGQHTVTLETGMMARQATAAVMVSMDDTAVFVTVVGQKKAKPGQDFFPLTVNYQERTYAAGRIPGSFFRREGRPSEGETLIARLIDRPIRPLFPEGFVNEVQVIATVVSVNPQVNPDIVAMIGASAALSLSGIPFNGPIGAARVGYINDQYVLNPTQDELKESKLDLVVAGTEAAVLMVESEAQLLSEDQMLGAVVFGHEQQQVVIQNINELVKEAGKPRWDWQPEPVNEALNARVAALAEARLSDAYRITDKQERYAQVDVIKSETIATLLAEDETLDENELGEILHAIEKNVVRSRVLAGEPRIDGREKDMIRGLDVRTGVLPRTHGSALFTRGETQALVTATLGTARDAQVLDELMGERTDTFLFHYNFPPYSVGETGMVGSPKRREIGHGRLAKRGVLAVMPDMDKFPYTVRVVSEITESNGSSSMASVCGASLALMDAGVPIKAAVAGIAMGLVKEGDNYVVLSDILGDEDHLGDMDFKVAGSRDGISALQMDIKIEGITKEIMQVALNQAKGARLHILGVMEQAINAPRGDISEFAPRIHTIKINPDKIKDVIGKGGSVIRALTEETGTTIEIEDDGTVKIAATDGEKAKHAIRRIEEITAEIEVGRVYTGKVTRIVDFGAFVAIGGGKEGLVHISQIADKRVEKVTDYLQMGQEVPVKVLEVDRQGRIRLSIKEATEQSQPAAAPEAPAAEQGEHHHHHH”, which “soluble on expression in E. coli” value is on record?
Answer: soluble

Question: For “KRSNSIKRNPNAPVVRRGWLYKQDSTGMKLWKKRWFVLSDLCLFYYRDEKEEGILGSILLPSFQIALLTSEDHINRKYAFKAAHPNMRTYYFCTDTGKEMELWMKAMLDAALVQT”, which “soluble on expression in E. coli” value is on record?
Answer: soluble

Question: With KSCCSCCPAECEKCAKDCVCKGGEAAEAEAEKCSCCQ as the sequence, how does the “soluble on expression in E. coli” value read?
Answer: soluble

Question: With “KTIYLQSPYFIPDASLLEAIKIAALSGVDVRVMIPNKPDHAFVYRATTNYAGELMETGAKIFIYDNGFIHAKTLVVDGEIASVGTANMDFRSFRLNFEVNAFIYEKKMVQKLEDAFLEDILKSYQLTPELYAKR” as the sequence, how does the “soluble on expression in E. coli” value read?
Answer: not soluble

Question: For “KTSILLLLMIATALPSFGGNGNGNGTDSLQATRYVTRATMYGVGYTNVFDTYLSPQEYKGIEFRISRETMRMTTLGDGNVSVQNFFQANLAYTHNRVDNNNTFAGLVNWNYGLHYQFRITDNFKLLAGGMGDFNGGFVYNLRNTNNPASARAYINLDASGMAIWHTKIKNYPLALRYQVNLPVIGVMFSPHYGQSYYEIFTLGHASGVIRFTSLHNQPALRQMLSVDFPIRYTKMRLSYLCDLQQSKLNGIKTHTYSQVFMVGFVHDLFRIRNKNGTPLPPAVRAY”, which “soluble on expression in E. coli” value is on record?
Answer: not soluble

Question: For “KTVPSGQAGQGFAEKGPWKKLGLTYTQKTEIQRIHHNTRAEMDKVLTTEQKEQLKAAMQERQTQRSQGEGRGKWKKDIFTSLNLTDAQKSQIQEIRELSRKQMEAVLTPAQRQQLQQMEQNWKSRRQQGNSN”, which “soluble on expression in E. coli” value is on record?
Answer: not soluble

Question: Which “soluble on expression in E. coli” value does the source give for “KVKFTEEEDLKLQQLVMRYGAKDWIRISQLMITRNPRQCRERWNNYINPALRTDPWSPEEDMLLDQKYAEYGPKWNKISKFLKNRSDNNIRNRWMMIARHRAKHQKS” here?
Answer: soluble

Question: With “KVVFAKEQPAHREVQAEAGASATLSCEVAQAQTEVTWYKDGKKLSSSSKVRVEAVGCTRRLVVQQAGQAEAGEYSCEAGGQQLSFRLQVAGQCFG” as the sequence, how does the “soluble on expression in E. coli” value read?
Answer: soluble

Question: Which “soluble on expression in E. coli” value does the source give for “LAEGEEQIVARDGNSWLVDGVTPITDVMRSFAIEEFPQQQNYETIAGFMMYMLRKIPRRTDSVVYAGYKFEVVDIDNYKVDQLLVSRVE” here?
Answer: not soluble

Question: With “LAIAAIRNLLIKNDIEILAELTEGGSAVQRVETLKPDIVIIDVDIPGVNGIQVLETLRKRQYSGIIIIVSAKNDHFYGKHCADAGANGFVSKKEGMNNIIAAIEAAKNGYCYFPFSLNRFVGSLTSDQQKLDSLSKQEISVMRYILDGKDNNDIAEKMFISNKTVSTYKSRLMEKLECKSLMDLYTFAQ” as the sequence, how does the “soluble on expression in E. coli” value read?
Answer: not soluble

Question: For “LATMKDVARLAGVSTSTVSHVINKDRFVSEAITAKVEAAIKELNYAPSALARSLKLNQTHTIGMLITASTNPFYSELVRGVERSCFERGYSLVLCNTEGDEQRMNRNLETLMQKRVDGLLLLCTETHQPSREIMQRYPTVPTVMMDWAPFDGDSDLIQDNSLLGGDLATQYLIDKGHTRIACITGPLDKTPARLRLEGYRAAMKRAGLNIPDGYEVTGDFEFNGGFDAMRQLLSHPLRPQAVFTGNDAMAVGVYQALYQAELQVPQDIAVIGYDDIELASFMTPPLTTIHQPKDELGELAIDVLIHRITQPTLQQQRLQLTPILMERGSA”, which “soluble on expression in E. coli” value is on record?
Answer: soluble

Question: With “LDIQMTQSPSSLSASLGERVSLTCRASQEISGYLYWLQQKPDGTIKRLIYAGSTLDSGVPKRFSGSRSGSDYSLTISSLESEDFADYYCLQYASYPRTFGGGTKVEIKRTVAAPSVFIFPPSDEQLKSGTASVVCLLNNFYPREAKVQWKVDNALQSGNSQESVTEQDSKDSTYSLSSTLTLSKADYEKHKVYACEVTHQGLSSPVTKSFNRGECGAGA” as the sequence, how does the “soluble on expression in E. coli” value read?
Answer: soluble

Question: For “LFGVTSELSKDGRERIYRVEGQLFYASVEDFMAAFDFREALDRVVIDVSRAHIWDISSVQALDMAVLKFRREGAEVRIVGMNEASETMVDRLAIHDKPGAMDRLVAH”, which “soluble on expression in E. coli” value is on record?
Answer: not soluble

Question: For “LHIDTEWRSDFKWDRLAEHISDLSGKYVLDIGCGSGYHLWRMRGAGAKFVVGIDPTQLFLMQFNAIKHFIDDSPVHLLPLGVEQLPELKAFDTVFAMGVLYHRRSPIDFLYQLKAQLVKGGELVLETLIVDG”, which “soluble on expression in E. coli” value is on record?
Answer: not soluble

Question: For “LIELIQYTPTTDTVRPEPILIVPAWIMKYYILDLSPENSMVKFLVDQGYTVFMISWRNPSAEDRDLGLDDYRKMGVVDAIGAVQGIVPDQKIHGVGYCLGGTLLSISAATMGRDGGDPFASLSYLASQIDFTEPGELQLFINESQLTFLEDMMWDHGYLDTTQMSGAFQMIGSADLVWSRSLHSYLMGDEPAMFDLLAWNADGTRMPYRMHSEYLRSLYLNNELTEGAFVVEGRPISVTDIRVPVFSVGTVKDHVAPWPSVYKMHLYLDTDLTFVLTSGGHN”, which “soluble on expression in E. coli” value is on record?
Answer: not soluble

Question: Which “soluble on expression in E. coli” value does the source give for “LINQAEVDIYDIPVALITEQYMAYIHTMQELQLDVASEYLVMAATLLQIKSKMLLPKQEEIFDETFEYEEEDPREELMFRLIEYRRYKEAAQELKEKEGERSQVHTRLPDNLDDYLTEEERQRQSIQGVTLFDMLAAYQKLLKRRAYSRPRTSTVKVEEYSIDERMTDILMDLEKCNGKCRFQDLFV” here?
Answer: not soluble

Question: With “LKDVLNILLMDEISKLKDFLSNLDYIKPKVNIEEEIIEIRKEDIINALKLFKGKYEIEVDKIPKAVYVYLVKKNILFLYPQRGTLKPQSFLVWNAIKRVL” as the sequence, how does the “soluble on expression in E. coli” value read?
Answer: soluble

Question: With “LKLPDMRDVVGQPEARFAAEVAAAGGHHMLMIGPPGSGKSMIAERIPSLLPELSPQQMIEATAVHSVVGRTFSGPVSRAPFISPHHNVSKAALLGGGSGSPLPGAISLAHHGVLFLDEVSEIPASILDSLRTPLEYGSIRIIRSRHDVTFPAQFQLILAANPCRCG” as the sequence, how does the “soluble on expression in E. coli” value read?
Answer: not soluble

Question: For “LKRDFIILGNGPRLQNSTYQCKHCDSKLQSTAELTSHLNIHNEEFQKRAKRQERRKQLLSKQKYADGAFADFKQE”, which “soluble on expression in E. coli” value is on record?
Answer: soluble

Question: For “LNHIYNVAFWAEEIGKIVGLDEKRLAKLYLAGLLHDIGKVYIDERILNKEGRLTLQEYQEMKKHVDYSYNMVKDLMIWDIEDDVALWVVQHHEKFDGSGYPFGLKEEEITPEGRILKIADTLDA”, which “soluble on expression in E. coli” value is on record?
Answer: soluble

Question: For “LNKTLFLGYAFLLTMATTSDKLASRSKLPDGPTGSSEEEEEFLEIPPFNKQYTESQLRAGAGYILEDFNEAQCNTAYQCLLIADQHCRTRKYFLCLASGIPCVSHVWVHDSCHANQLQNYRNYLLPAGYSLEEQRILDWQPRENPFQNLKVLLVSDQQQNFLELWSEILMTGGAASVKQHHSSAHNKDIALGVFDVVVTDPSCPASVLKCAEALQLPVVSQEWVIQCLIVGERIGFKQHPKYKHDYVSH”, which “soluble on expression in E. coli” value is on record?
Answer: soluble

Question: Which “soluble on expression in E. coli” value does the source give for “LNNLEELKRDIIEQFKEKNALDEGIVVMASGGKDSSTAIALAKDLGLNIEYLIHFYHRWSWDVSKKMVEKLSKKFDIPVIFYNITDELLKRTKGAKGSSICRICKNIMKDKAVDISKEKGIRIIMTGDSALEKVSGAVMNYLRDVYGEVVYNKMELTPVPQKYSKGKDKEVLFFRPLIRLACEDVLKLMDYYNIEIERAHE” here?
Answer: not soluble

Question: For “LRSNIDLFYTPGEILYGKRETQQMPEVGQRLRVGGMVMPGSVQRDPNSLKVTFTIYDAEGSVDVSYEGILPDLFREGQGVVVQGELEKGNHILAKEVLAKHDENYTPPEVEKAMEANHRRPASVYKDPASHHHHHH”, which “soluble on expression in E. coli” value is on record?
Answer: soluble

Question: With “LSIPEDYQARLQPNRVEGSYPLVRMEFTGATVDAPLMSQISRKYNIDVSILSSDLDYAGGVKFGMMVAELFGNEQDDSAAIEYLREHNVKVEVLGYVL” as the sequence, how does the “soluble on expression in E. coli” value read?
Answer: soluble

Question: Which “soluble on expression in E. coli” value does the source give for “LSLQSEIDSLCAVSHELLHLGLDGEPIYSDRFRQLNTDVYHRCEHLFGSHGRTLEEEASLCIALLTGYNATIYNHGDKEDKIQSVLNRSWDLLDTLPVSLLKCRLLVACYAEVFD” here?
Answer: not soluble
